Assay [1] has as its target T1, H3(1-15)K9me2 peptide (UniProt P59226 2-16, dimethyl-lysine at K9).
T1 peptide: ARTKQTARKSTGGKA
Kind of assay: ITC; FIG. 3A. A general note: Isothermal titration calorimetry measures the heat released or taken up as one component is titrated into another.

The target in assay [2] is T1, H3(1-15)K9me2 peptide. Kind of assay: ITC; FIG. 3B.
In the next assay the target is H3K4me2. Kind of assay: ITC; FIG. 3B.
In a further assay the target is H4K20me2. The experiment in a line: ITC; FIG. 3B.

B1: SHH1 SAWADEE domain (residues 125-258) (other)
chain: ADLAFEAKSARDYAWYDVSSFLTYRVLRTGELEVRVRFSGFDNRHDEWVNVKTSVRERSIPVEPSECGRVNVGDLLLCFQEREDQALYCDGHVLNIKRGIHDHARCNCVFLVRYELDNTEESLGLERICRRPEE
Consider B1, for which the Kd with H3(1-15)K9me2 peptide [1] and with H3(1-15)K9me2 peptide [2] was 1.9 µM in each case.

B2: SAWADEE domain (other)
chain: ADLAFEAKSARDYAWYDVSSFLTYRVLRTGELEVRVRFSGFDNRHDEWVNVKTSVRERSIPVEPSECGRVNVGDLLLCFQEREDQALYCDGHVLNIKRGIHDHARCNCVFLVRYELDNTEESLGLERICRRPEE
Consider B2, for which the Kd with H3K4me2 came to 52.1 µM; with H4K20me2, 80.6 µM.

Broadly, the Kd is the concentration at which binding is half-saturated. Lower therefore signals tighter binding.

Source of the values: patent US20160017348A1 (published 2016).
